# In patent US20070141570A1:
# Molecular target: RIa isoform of PKA (type I alpha regulatory subunit of cAMP-dependent protein kinase)
# Assay: binding in vitro, method not described
substance,measurement,value
"D-AKAP2 (AKAP10) Ile variant, isoleucine at position 646 of SEQ ID NO:2 (from UniProt O43572 507-662)",fold weaker binding than the Val variant,3 fold
